Laboratory results from patent publication US20130252887A1 (BETH ISRAEL DEACONESS MEDICAL CENTER, published 2013).

T1: Beta2-glycoprotein I (β2GPI), full-length, human (human, UniProt P02749 20-345)
T1 construct: mature; Two preparations of the same native protein were used, serum and purified from plasma; the assay field of each row says which; Where anti-β2GPI antibodies (Cedarlane CL20021HP, peroxidase-conjugated) were present, β2GPI stood as dimeric β2GPI/antibody complexes; also called B2GPI; β2GPI in normal human serum
T1 sequence (looked up): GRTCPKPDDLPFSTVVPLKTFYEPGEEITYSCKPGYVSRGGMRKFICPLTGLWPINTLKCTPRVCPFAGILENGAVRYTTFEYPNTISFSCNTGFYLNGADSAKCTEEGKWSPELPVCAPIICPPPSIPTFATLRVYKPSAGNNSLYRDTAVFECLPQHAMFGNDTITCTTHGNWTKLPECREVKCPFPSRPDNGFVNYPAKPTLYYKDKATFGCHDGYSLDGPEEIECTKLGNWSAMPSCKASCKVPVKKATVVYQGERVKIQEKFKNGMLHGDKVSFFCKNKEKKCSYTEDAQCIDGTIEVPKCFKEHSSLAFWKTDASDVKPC

T2: isolated recombinant domain V of β2GPI (residues 244-326) with N-terminal HA peptide tag (UniProt P02749 263-345)
T2 construct: range 244-326; Expressed in E. coli from pET15b with a His tag that was removed with TEV protease; The HA-tagged form was used in the cardiolipin assays, where it was detected or dimerized with anti-HA antibody Abcam ab1265; also called β2GPI-DV; individual domain V of β2GPI
T2 sequence: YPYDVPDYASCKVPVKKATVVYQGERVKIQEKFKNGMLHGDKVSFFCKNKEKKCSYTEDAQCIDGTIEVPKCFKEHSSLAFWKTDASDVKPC


How the values were obtained:
[1] = molecular target: T1, Beta2-glycoprotein I (β2GPI), …; assay: inhibition of binding of β2GPI in 0.04% human serum to a cardiolipin-coated plate, with anti-β2GPI antibodies present (β2GPI/antibody complexes); OD405, one-site fit
Source text: (§1) We compared the dimeric inhibitor, A1-A1, to monomeric A1 on the inhibition of binding of β2GPI/anti-β2GPI antibody complexes to cardiolipin. First, we used pooled normal human serum as a source of β2GPI. The majority of the β2GPI molecules in serum is in the circular form (Agar et al., Blood, 2010). To select the appropriate concentration of β2GPI for the inhibition studies, we measured the binding of β2GPI to cardiolipin (FIG. 2A). To create β2GPI/anti-β2GPI complexes, anti-β2GPI antibodies at constant concentration were added to β2GPI before the samples were applied to cardiolipin. […] We then compared the efficiency of A1-A1 and A1 for the inhibition of the binding of β2GPI in serum to cardiolipin in the presence of anti-β2GPI antibodies (FIG. 2B). 0.04% of human serum, which is in the linear region of the binding curve, was incubated on a cardiolipin-coated surface in the presence of anti-β2GPI antibodies and the inhibitors. In the presence of anti-β2GPI antibodies, the dimeric molecule, A1-A1, inhibited the binding to cardiolipin of β2GPI in serum much stronger than monomeric A1. […] Also, we measured how A1-A1 and A1 inhibited the binding of β2GPI in serum in the absence of anti-β2GPI antibodies (FIG. 3). A 1% solution of human serum was titrated with A1-A1 or A1 and β2GPI bound to cardiolipin was subsequently detected with anti-β2GPI antibodies. […]

[2] = molecular target: T1, Beta2-glycoprotein I (β2GPI), …; assay: inhibition of binding of 10 nM β2GPI purified from plasma to a cardiolipin-coated plate, with anti-β2GPI antibodies present; OD405, one-site inhibition fit
Protocol: Next, we analyzed how A1-A1 and A1 inhibit the binding of purified β2GPI to cardiolipin. […] We used β2GPI purified from human plasma available from Haematologic Technologies, Inc. and analyzed the binding and inhibition of the binding of purified β2GPI by A1-A1 and A1 in the presence and in the absence of anti-β2GPI antibodies. […] We incubated 10 nM of β2GPI with various concentrations of the dimeric, A1-A1, and monomeric, A1, inhibitors in the presence of anti-β2GPI antibodies. […] In a separate experiment, we measured the inhibition of β2GPI in the presence of antibodies and compared the measured values to values predicted by the fit of the titration data (FIG. 4C). The measured values were close to those expected from the fit, additionally confirming that in the presence of anti-β2GPI antibodies a much lower concentration of A1-A1 was required to inhibit 50% of the binding of purified β2GPI to cardiolipin compared to A1. […] Similarly to what we observed for β2GPI in serum, the binding of purified β2GPI to cardiolipin in the presence of anti-β2GPI antibodies was inhibited more strongly by the dimeric inhibitor A1-A1 than by A1. Both, A1-A1 and A1, were ineffective in the inhibition of β2GPI in the absence of anti-β2GPI antibodies. […]

[3] = molecular target: T1, Beta2-glycoprotein I (β2GPI), …; assay: inhibition of binding of β2GPI in 1% human serum to a cardiolipin-coated plate, without anti-β2GPI antibodies during binding (monomeric β2GPI); OD405, one-site fit
Source text: as §1

[4] = molecular target: T2, isolated recombinant domain V of β2GPI …; assay: inhibition of binding of 30 nM HA-tagged β2GPI-DV to a cardiolipin-coated plate, with anti-tag (anti-HA) antibody present (dimeric complexes); OD405, one-site fit
Protocol: As we observed for the inhibition of the binding of β2GPI in human serum and purified β2GPI to cardiolipin-coated surfaces, the isolated domain V was inhibited much stronger by the dimeric inhibitor A1-A1 compared to monomeric A1 in the presence of dimeric β2GPI-DV/anti-tag antibody complexes.
Cardiolipin-coated 96 well plates available as part of the ImmunoWELL cardiolipin IgG test kit (GenBio) were blocked with 0.5% of skim milk and 2% BSA in 20 mM Tris, 100 mM NaCl, 2 mM CaCl₂, pH 7.4. The assay buffer contained 20 mM Tris, 100 mM NaCl, 2 mM CaCl₂, pH 7.4 with 2% BSA and the wash buffer was 20 mM Tris, 100 mM NaCl, 2 mM CaCl₂, pH 7.4. When the purified β2GPI (Haematologic Technologies, Inc.) was used in experiments, 27 mM glycine was added to the assay buffer to account for glycine present in the stock solution of β2GPI. β2GPI bound to cardiolipin was detected with peroxidase-conjugated anti-β2GPI antibodies (Cedarlane, CL20021HP, 2 mg/ml) diluted 1:2500. […] The peroxidase activity of the bound antibodies was detected using 2-2′-azino-di-[3-ethylbenzthizzoline]sulfonate (ABTS) chromogenic reagent by measuring OD at 405 nm. […] The fits of the raw data and the titration data points were then normalized to the maximum binding determined from the fit to facilitate comparison. […]

[5] = molecular target: T2, isolated recombinant domain V of β2GPI …; assay: inhibition of binding of isolated HA-tagged β2GPI-DV to a cardiolipin-coated plate, without dimerization antibodies; OD405, one-site fit
Protocol: Cardiolipin-coated 96 well plates available as part of the ImmunoWELL cardiolipin IgG test kit (GenBio) were blocked with 0.5% of skim milk and 2% BSA in 20 mM Tris, 100 mM NaCl, 2 mM CaCl₂, pH 7.4. The assay buffer contained 20 mM Tris, 100 mM NaCl, 2 mM CaCl₂, pH 7.4 with 2% BSA and the wash buffer was 20 mM Tris, 100 mM NaCl, 2 mM CaCl₂, pH 7.4. When the purified β2GPI (Haematologic Technologies, Inc.) was used in experiments, 27 mM glycine was added to the assay buffer to account for glycine present in the stock solution of β2GPI. β2GPI bound to cardiolipin was detected with peroxidase-conjugated anti-β2GPI antibodies (Cedarlane, CL20021HP, 2 mg/ml) diluted 1:2500. […] The peroxidase activity of the bound antibodies was detected using 2-2′-azino-di-[3-ethylbenzthizzoline]sulfonate (ABTS) chromogenic reagent by measuring OD at 405 nm. […] The fits of the raw data and the titration data points were then normalized to the maximum binding determined from the fit to facilitate comparison.
For the inhibition studies, increasing concentrations of A1 or A1-A1 were added to a constant amount of β2GPI ([…]), normal human serum (1%) or β2GPI-DV (130 nM) and incubated for 1 hour at room temperature. […] Then, samples were incubated on wells for an additional 1 hour and, after washing, the bound β2GPI/anti-β2GPI or β2GPI-DV/anti-tag antibody complexes were detected.

| Binder | IC50 [1] | IC50 [2] | IC50 [3] | IC50 [4] | IC50 [5] |
| --- | --- | --- | --- | --- | --- |
| dimeric inhibitor A1-A1 (two A1 ligand-binding LA modules of ApoER2 connected by a Gly-Ser-Ser-Gly linker) (designed binder) AECEEDQFRCRNERCIPLVWRCDEDNDCSDNSDEDDCGSSGCEEDQFRCRNERCIPLVWRCDEDNDCSDNSDEDDCEA | 10 µM | 26 µM | 189 µM | 12 µM |  |
| monomeric A1 (first LA module of mouse ApoER2, residues 12-47 of the mature protein) (receptor, range 12-47; Residues 12-47 are counted on the mature protein, not the precursor; also called A1 module) not shown | 218 µM | 191 µM | 176 µM | 204 µM | 188 µM |
